Source: paper PMC4619345, “Key Amino Acids in the Bacterial (6-4) Photolyase PhrB from Agrobacterium fabrum”
Changes are numbered by the printed parent chain.

T1: PhrB Y424F (Agrobacterium fabrum, UniProt A9CH39 1-507, Y424F)
T1 sequence: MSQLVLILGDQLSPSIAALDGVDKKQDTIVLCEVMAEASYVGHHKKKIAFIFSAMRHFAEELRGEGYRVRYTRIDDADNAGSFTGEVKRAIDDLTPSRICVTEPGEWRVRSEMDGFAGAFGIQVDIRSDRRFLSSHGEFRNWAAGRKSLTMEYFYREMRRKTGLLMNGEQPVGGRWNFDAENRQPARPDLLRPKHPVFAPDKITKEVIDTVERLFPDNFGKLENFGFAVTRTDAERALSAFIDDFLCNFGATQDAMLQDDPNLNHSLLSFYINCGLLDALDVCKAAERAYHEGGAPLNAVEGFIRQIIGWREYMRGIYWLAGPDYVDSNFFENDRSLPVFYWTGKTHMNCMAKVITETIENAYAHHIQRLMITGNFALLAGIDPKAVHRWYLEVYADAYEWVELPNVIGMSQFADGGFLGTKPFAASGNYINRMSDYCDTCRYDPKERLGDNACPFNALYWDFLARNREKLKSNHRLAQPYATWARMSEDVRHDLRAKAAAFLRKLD

T2: PhrB Y460F (Agrobacterium fabrum, UniProt A9CH39 1-507, Y460F)
T2 sequence: T1 sequence with F424Y, Y460F

T3: PhrB Y430F (Agrobacterium fabrum, UniProt A9CH39 1-507, Y430F)
T3 sequence: T1 sequence with F424Y, Y430F

T4: PhrB (Agrobacterium fabrum, UniProt A9CH39 1-507)
T4 sequence: T1 sequence with F424Y


What was measured:
Conditions in all cases: protein: recombinant; tags: C-terminal poly-His (pET21); label: 5' 32P; single strand
[1] = target: T1, PhrB Y424F; assay: EMSA; reduced FAD, darkness; […] (buffer 1: 50 mM Tris-HCl pH 7.0, 1 mM EDTA, 100 mM NaCl, 5% glycerol, 20 mM DTT); or buffer 2: pH 7.5, 10 mM DTT; […]
[2] = target: T2, PhrB Y460F; assay: as above
[3] = target: T3, PhrB Y430F; assay: as above
[4] = target: T4, PhrB; assay: EMSA; reduced FAD, darkness; EMSA in repair buffer (buffer 1: 50 mM Tris-HCl pH 7.0, 1 mM EDTA, 100 mM NaCl, 5% glycerol, 20 mM DTT; or buffer 2: pH 7.5, 10 mM DTT; which one not stated), 28 nM DNA, 10% TBE-PAGE at 4 C in darkness

| Binder | Kd [1] [µM] | Kd [2] [µM] | Kd [3] [µM] | Kd [4] [µM] |
| --- | --- | --- | --- | --- |
| CATAGGTTGGCATA (ssDNA, (6-4) photoproduct at T7-T8 (the only TT; 254 nm UV, HPLC purified)) [EMSA_1 (6-4)TT photoproduct] | 18 ± 2 | 0.025 ± 0.003 | 0.027 ± 0.003 | 0.013 ± 0.002 |
| CATAGGTTGGCATA (ssDNA) [EMSA_1 undamaged] | 28 ± 3 | 25 ± 3 | 27 ± 2 | 25 ± 3 |
